In article PMC6652007, “Metabolic engineering of Clostridium thermocellum for n-butanol production from cellulose” (Biotechnology for Biofuels, 2019):
Numbering of substitutions follows the chain as printed. Names may count otherwise.

B1: Tt_Thl (Thermoanaerobacterium thermosaccharolyticum DSM 571) (protein)
chain: MKEVVIASGVRTAVGKFGGTLLNVPAVDLGAVVIKEALKRANVKPEDVSEVIMGNVLQAGLGQNPARQAEIKAGIPVEVPAMTVNMVCGSGLRAVTLAAQAVMLGDADIVVAGGMENMSRAPYILNDARFGYRMNNGQLVDEMVYDGLTDVFNQYHMGITAENLAEKYGISREEQDEFAYRSQKLASEAISSGRFEDEIVPVIVPQKKGEPIEFKVDEHVRPNTTIEALAKLKPAFKKDGTVTAGNASGINDAAAAVVVMSKEKADELGIKPLATIKSFGYAGVDPSIMGIGPVYATRKALEKANLTVDDLDLIEANEAFAAQSLAVAKELKFNMDRVNVNGGAIAIGHPIGASGCRILVTLLYEMQKRNSHTGLATLCIGGGMGIAMVVER
notes: His-tagged (vector pD861-CH), codon-optimised, expressed in E. coli BL21(DE3)
B2: Tt_Thl (Thermoanaerobacterium thermosaccharolyticum DSM 571; H156N/N223V/P222F/R133G) (protein)
chain: B1 chain with R133G, H156N, P222F, N223V
notes: as for B1
B3: Tt_Thl (Thermoanaerobacterium thermosaccharolyticum DSM 571; N153Y/S287K/V77Q) (protein)
chain: B1 chain with V77Q, N153Y, S287K
notes: as for B1
B4: St_Ter (Winmispira thermophila DSM 6578) (protein)
chain: MVIKPMIRNNICMNAHPEGCRLFVDRQIDYVRQRGPLSSGPKNVLVVGSSGGYGLATRIAAGFGAGAATIGVYFEKEPSEKRTGTPGWYAARHFLKRAEAAGLKVHDINGDAFSFEVKAQVVDLIKKEYGTIDLFVYSLASGVRTDPVSGVTYRSALKPIGRTYTSKALDPLKREVVQAAIEPASEEEIEATVKVMGGEDWQLWVEALKEGGVLAEGAVTVAYSYIGPELTRPIYREGTIGKAKEHLEATAKTLDEALASVGGKAYVSVNKAVVTRASAVIPAVPLYLSILFTVMKAKGIHEGCIEQMYRMLAERLYAGGPVPVDDEGRIRMDDWEMREDVQREVAEVWERITTETLDTEADVDGYLTDFLNLHGFGFKEIDYEKEVDPREG
notes: as for B1
B5: St_Ter (Winmispira thermophila DSM 6578; E75A) (protein)
chain: B4 chain with E75A
notes: as for B1

Columns and labels:
coupled Hbd assay, A340 = substrate: CC(=O)SCCNC(=O)CCNC(=O)[C@H](O)C(C)(C)COP(=O)(O)OP(=O)(O)OC[C@H]1O[C@@H](n2cnc3c(N)ncnc32)[C@H](O)[C@@H]1OP(=O)(O)O; assay: coupled Hbd assay, A340; format: biochemical, Thermoanaerobacterium thermosaccharolyticum; settings: coupled with Hbd, 100 mM MOPS-KOH pH 7.5, 55 °C
From the text: coupled Hbd assay, A340 on Tt_Thl

NAD(P)H oxidation, A340 [1] = substrate: NC(=O)C1=CN([C@@H]2O[C@H](COP(=O)(O)OP(=O)(O)OC[C@H]3O[C@@H](n4cnc5c(N)ncnc54)[C@H](O)[C@@H]3O)[C@@H](O)[C@H]2O)C=CC1; assay: NAD(P)H oxidation, A340; format: biochemical, Winmispira thermophila; settings: crotonyl-CoA as substrate, 100 mM MOPS-KOH pH 7.5, 55 °C, varied: cofactor
From the text: (§1) NAD(P)H oxidation, A340 on St_Ter

NAD(P)H oxidation, A340 [2] = substrate: NC(=O)C1=CN([C@@H]2O[C@H](COP(=O)(O)OP(=O)(O)OC[C@H]3O[C@@H](n4cnc5c(N)ncnc54)[C@H](OP(=O)(O)O)[C@@H]3O)[C@@H](O)[C@H]2O)C=CC1; assay: NAD(P)H oxidation, A340; format: biochemical, Winmispira thermophila; settings: crotonyl-CoA as substrate, 100 mM MOPS-KOH pH 7.5, 55 °C, varied: cofactor
From the text: as §1

NADH oxidation, A340 = substrate: C/C=C/C(=O)SCCNC(=O)CCNC(=O)[C@H](O)C(C)(C)COP(=O)(O)OP(=O)(O)OC[C@H]1O[C@@H](n2cnc3c(N)ncnc32)[C@H](O)[C@@H]1OP(=O)(O)O; assay: NADH oxidation, A340; format: biochemical, Winmispira thermophila; settings: 0.3 mM NADH, 100 mM MOPS-KOH pH 7.5, 55 °C
From the text: NADH oxidation, A340 on St_Ter

Protein | Km (NAD(P)H oxidation, A340 [1]) [µM] | Vmax (NAD(P)H oxidation, A340 [1]) [µmol/min/mg] | Km (NAD(P)H oxidation, A340 [2]) [µM] | Vmax (NAD(P)H oxidation, A340 [2]) [µmol/min/mg] | further results
B1 | – | – | – | – | Km (coupled Hbd assay, A340; 0.3 mM NADH): 2400 ± 580 µM
B2 | – | – | – | – | Km (coupled Hbd assay, A340; variant M2, NADH): 2600 ± 500 µM; Vmax (coupled Hbd assay, A340; variant M2, NADH): 45.2 µmol/min/mg
B3 | – | – | – | – | Km (coupled Hbd assay, A340; variant M1, NADH): 3300 ± 700 µM; Vmax (coupled Hbd assay, A340; variant M1, NADH): 15.3 µmol/min/mg
B4 | 30 ± 10 | 18.2 | 400 ± 100 | 12.2 | Km (NADH oxidation, A340): 30 ± 10 µM
B5 | 600 ± 100 | 10.3 | 20 ± 10 | 68.1 | –
